Test results taken from US11229713B2, “Methods and compositions for 18F-radiolabeling of biologics” (BRISTOL-MYERS SQUIBB COMPANY, priority 2014, dated 2022).

Biological target: PD-L1 (Homo sapiens, UniProt Q9NZQ7)
Test: In vitro autoradiography blocking study in human lung tumor and xenograft tissue sections
Parameters: PD-L1-positive L2987 human lung carcinoma cells or PD-L1-negative HT-29 human colorectal adenocarcinoma cells; endogenous in cells; host or cells: L2987 human lung carcinoma cells (HT-29 as PD-L1-negative control)
Conditions: A02 0.025-25 nM, non-PD-L1 binding adnectin 25 nM, 1 hour room temperature
Description: Human lung tumor tissues were embedded in OCT and chilled in 2-methylbutane for 2-5 minutes until frozen. The samples were stored in −80° C. degree freezer until use. Human xenograft tissues were also included in the assay. Mice bearing bilateral xenografts were produced by introducing 4×10^6 PD-L1(+) L2987 cells and 1.5×10^6 PD-L1(−) HT-29 t cells subcutaneously into opposite flanks of nu/nu mice. Once resulting xenograft tumors reached appropriate size (approx. 200-300 mm^3) mice were anesthetized with 2% isoflurane and sacrificed via cervical dislocation. Fresh tumor tissues were excised, immersed into OCT and chilled in 2-methylbutane for 2-5 minutes until frozen. The tissues were then wrapped in foil/ZIPLOC® bag and stored at −80° C. until use. For all tissues (human lung tumor and xenografts) sections of 5 μm thickness (collected as 2 sections/slide) were cut using a cryostat, thaw-mounted on glass microscope slides, and allowed to air dry for approximately 30 minutes.
Blocking studies with cold (unlabeled) A02 adnectin at 0.025 nM, 0.25 nM, 2.5 nM and 25 nM respectively and 25 nM non-PD-L1 binding adnectin were conducted using the following conditions. […] Autoradiography signal from tissue-associated radioactivity was quantified from these ROIs.

Sequence of PD-L1 (Q9NZQ7 19-290): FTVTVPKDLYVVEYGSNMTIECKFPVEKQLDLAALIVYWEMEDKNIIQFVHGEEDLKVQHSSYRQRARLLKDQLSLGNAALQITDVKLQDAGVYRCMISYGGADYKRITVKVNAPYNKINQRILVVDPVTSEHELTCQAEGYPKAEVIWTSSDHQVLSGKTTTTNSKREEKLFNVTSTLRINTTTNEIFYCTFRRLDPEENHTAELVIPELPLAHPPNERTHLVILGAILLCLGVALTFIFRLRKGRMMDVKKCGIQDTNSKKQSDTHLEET

B1: A02 adnectin: anti-PD-L1 Adnectin, SEQ ID NO: 2, cold (unlabeled) (protein)
chain: EVVAATPTSLLISWSYDGPIDRYYRITYGETGGNSPVQEFTVPPDQKTATISGLKPGVDYTITVYAVRLEEAHYNREFPISINYRTPC
modifications: Synthetic 18F-radiolabeled PD-L1 Adnectin, A02
displacement / blockade of 0.25 nM ^18F-A02 adnectin radioligand compared to total binding: dose dependent displacement
